Drawing on publication PMC6002512, “The Defense-Related Isoleucic Acid Differentially Accumulates in Arabidopsis Among Branched-Chain Amino Acid-Related 2-Hydroxy Carboxylic Acids” (Frontiers in Plant Science, 2018), this text covers Km, kcat and kcat/Km for one protein.

Assay type in all cases: biochemical, Arabidopsis thaliana
Substrate in series [1]: CC(C)CC(O)C(=O)O
As to the kind of experiment: HPLC with radiodetection of glucosylated product, non-linear regression. Particulars: 2 mM 14C-UDP-glucose, 0.1 M Tris-HCl pH 7.5, 30°C. The source says:
(§1) HPLC with radiodetection of glucosylated product, non-linear regression on UGT76B1

Substrate in series [2]: CC[C@H](C)[C@H](O)C(=O)O
The description is as above. Particulars: 2 mM 14C-UDP-glucose, 0.1 M Tris-HCl pH 7.5, 30°C.
Source text: as §1

Substrate in the series “purified protein”: O=C(O)c1ccccc1O
Put plainly: purified protein. Particulars: 2 mM UDP-glucose, 0.1 M Tris-HCl pH 7.5, 30°C.

B1: UGT76B1 (Arabidopsis thaliana) (protein)
chain: METRETKPVIFLFPFPLQGHLNPMFQLANIFFNRGFSITVIHTEFNSPNSSNFPHFTFVSIPDSLSEPESYPDVIEILHDLNSKCVAPFGDCLKKLISEEPTAACVIVDALWYFTHDLTEKFNFPRIVLRTVNLSAFVAFSKFHVLREKGYLSLQETKADSPVPELPYLRMKDLPWFQTEDPRSGDKLQIGVMKSLKSSSGIIFNAIEDLETDQLDEARIEFPVPLFCIGPFHRYVSASSSSLLAHDMTCLSWLDKQATNSVIYASLGSIASIDESEFLEIAWGLRNSNQPFLWVVRPGLIHGKEWIEILPKGFIENLEGRGKIVKWAPQPEVLAHRATGGFLTHCGWNSTLEGICEAIPMICRPSFGDQRVNARYINDVWKIGLHLENKVERLVIENAVRTLMTSSEGEEIRKRIMPMKETVEQCLKLGGSSFRNLENLIAYILSF
notes: full coding region including the 5' ATG codon cloned into pDEST15; N-terminal GST fusion; recombinant
With B1, in series [1], the Km – broadly, the substrate concentration at which the rate is half of its maximum – is 461 ± 79 µM; the catalytic constant (kcat) (usually the number of substrate molecules converted per active site and unit of time at saturation) stood at 0.582 ± 0.035 s⁻¹; the catalytic efficiency (kcat/Km) (usually the second-order rate constant that governs catalysis at low substrate concentration) was determined as 1260 M⁻¹ s⁻¹. For the same protein, in series [2], the Km was 472 ± 97 µM, the turnover number (kcat) amounted to 0.914 ± 0.067 s⁻¹ and the catalytic efficiency (kcat/Km) was determined as 1940 M⁻¹ s⁻¹. In the series “purified protein”, the Km worked out at 151 ± 28 µM, the kcat is 0.331 ± 0.016 s⁻¹ and the kcat/Km turned out to be 2200 M⁻¹ s⁻¹.
